This note sets out measurements from patent publication US20240060082A1.

This test concerns the target soybean's RPS5 homolog (soybean). As to the kind of experiment: cell-based or functional assay.
In the case of “PBS1-R17 (modified Arabidopsis thaliana PBS1 with cleavage site R17, QVFEFL) (from UniProt Q9FE20 1-456)”, the resistance to the three soy rust strains in transgenic soybean, compared to control event G40 is above 85 % efficacy.
“PBS1-R19 (modified Arabidopsis thaliana PBS1 with cleavage site R19, QMIFLR) (from UniProt Q9FE20 1-456)”: the resistance to the three soy rust strains in transgenic soybean, compared to control event G40 was above 85 % efficacy.
Substance “PBS1-R20 (modified Arabidopsis thaliana PBS1 with cleavage site R20, IFLWSA) (from UniProt Q9FE20 1-456)” displayed a resistance to the three soy rust strains in transgenic soybean, compared to control event G40 above 85 % efficacy.
